From paper PMC6048717 come the findings set out here.

The assay addresses α-synuclein wild-type (UniProt P37840). The assay can be described thus: seeded fibril elongation kinetics.

As to “α-synuclein C-terminally truncated variant AS(1-119) (from UniProt P37840 1-119) (domain or fragment)”, the elongation rate constant k+ (monomer addition to AS(WT) seed fibril ends) is 2780 M⁻¹ s⁻¹.
